Target: Ac-Ubc9K65 (Ubc9 acetylated at K65), P63279
Assay: ITC; 2 μl additions of peptide to 200 μl of WT Ubc9 or Ac-Ubc9K65; 25 °C; pH 8.0, 20 mM potassium phosphate, 100 mM NaCl; iTC200; fitted assuming 1:1 binding stoichiometry

Chain of Ac-Ubc9K65 (Ubc9 acetylated at K65), P63279 (P63279 whole entry): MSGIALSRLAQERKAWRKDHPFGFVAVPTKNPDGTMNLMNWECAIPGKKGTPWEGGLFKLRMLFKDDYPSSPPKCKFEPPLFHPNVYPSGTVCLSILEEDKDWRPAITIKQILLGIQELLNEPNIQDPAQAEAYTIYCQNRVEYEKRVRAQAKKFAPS

VKVEVKEEEESSSN (modifications not checked) [CBP NDSM peptide] gave a Kd of 105 µM.
